Test results as given in the Human Domainome abundance scans (Beltran et al. 2025).
± gives the uncertainty stated by the source.

B1: Ubiquitin-protein ligase residues 30 to 86; numbered along this chain, Q05086 (parent)
chain: KHLIERYYHQLTEGCGNEACTNEFCASCPTFLRMDNNAAAIKALELYKINAKLCDPH

Variants of: B1
Assay: abundance fitness (aPCA) (normalised: wild type 0, dead -1); higher = more abundant; growth selection in yeast, the domain comes from the species named
Conditions: Homo sapiens

Q: For KHLIERYYHQLTEGCGNEACTNEFCASCPTFLRMDNNAAYIKALELYKINAKLCDPH [A40Y], which abundance fitness is on record?
A: The abundance fitness was -0.192 ± 0.2.

Q: For KHLIERYYHQLTEGCGNEACTNEFCASCPTFLRMDNNAASIKALELYKINAKLCDPH [A40S], which abundance fitness is on record?
A: Its abundance fitness is 0.037 ± 0.062.

Q: Which abundance fitness does the source give for KHLIERYYHQLTEGCGNEACTNEFCASCPTFLRMDNNAAWIKALELYKINAKLCDPH [A40W] here?
A: Its abundance fitness is -0.04 ± 0.074.

Q: Which abundance fitness does the source give for KHLIERYYHQLTEGCGNEACTNEFCASCPTFLRMDNNAAQIKALELYKINAKLCDPH [A40Q] here?
A: The abundance fitness was -0.015 ± 0.11.

Q: For KHLIERYYHQLTEGCGNEACTNEFCASCPTFLRMDNNAAPIKALELYKINAKLCDPH [A40P], which abundance fitness is on record?
A: The abundance fitness was -0.171 ± 0.089.

Q: With KHLIERYYHQLTEGCGNEACTNEFCASCPTFLRMDNNAATIKALELYKINAKLCDPH [A40T] as the variant, how does the abundance fitness read?
A: Its abundance fitness is 0.08 ± 0.1.

Q: For KHLIERYYHQLTEGCGNEACTNEFCASCPTFLRMDNNAAAIVALELYKINAKLCDPH [K42V], which abundance fitness is on record?
A: The abundance fitness was -0.392 ± 0.059.

Q: Which abundance fitness does the source give for KHLIERYYHQLTEGCGNEACTNEFCASCPTFLRMDNNAAAIWALELYKINAKLCDPH [K42W] here?
A: The abundance fitness was -0.293 ± 0.064.

Q: Which abundance fitness does the source give for KHLIERYYHQLTEGCGNEACTNEFCASCPTFLRMDNNAAAISALELYKINAKLCDPH [K42S] here?
A: Its abundance fitness is -0.178 ± 0.069.

Q: With KHLIERYYHQLTEGCGNEACTNEFCASCPTFLRMDNNAAAIHALELYKINAKLCDPH [K42H] as the variant, how does the abundance fitness read?
A: Its abundance fitness is -0.109 ± 0.14.

Q: Which abundance fitness does the source give for KHLIERYYHQLTEGCGNEACTNEFCASCPTFLRMDNNAAAIMALELYKINAKLCDPH [K42M] here?
A: The abundance fitness was -0.269 ± 0.086.

Q: For KHLIERYYHQLTEGCGNEACTNEFCASCPTFLRMDNNAAAICALELYKINAKLCDPH [K42C], which abundance fitness is on record?
A: The abundance fitness was -0.282 ± 0.096.

Q: With KHLIERYYHQLTEGCGNEACTNEFCASCPTFLRMDNNAAAIPALELYKINAKLCDPH [K42P] as the variant, how does the abundance fitness read?
A: The abundance fitness was -0.735 ± 0.14.

Q: Which abundance fitness does the source give for KHLIERYYHQLTEGCGNEACTNEFCASCPTFLRMDNNAAAIGALELYKINAKLCDPH [K42G] here?
A: Its abundance fitness is -0.343 ± 0.052.

Q: For KHLIERYYHQLTEGCGNEACTNEFCASCPTFLRMDNNAAAILALELYKINAKLCDPH [K42L], which abundance fitness is on record?
A: Its abundance fitness is -0.211 ± 0.066.

Q: For KHLIERYYHQLTEGCGNEACTNEFCASCPTFLRMDNNAAAITALELYKINAKLCDPH [K42T], which abundance fitness is on record?
A: The abundance fitness was -0.157 ± 0.08.

Q: For KHLIERYYHQLTEGCGNEACTNEFCASCPTFLRMDNNAAAIQALELYKINAKLCDPH [K42Q], which abundance fitness is on record?
A: Its abundance fitness is -0.085 ± 0.077.

Q: With KHLIERYYHQLTEGCGNEACTNEFCASCPTFLRMDNNAAAINALELYKINAKLCDPH [K42N] as the variant, how does the abundance fitness read?
A: The abundance fitness was -0.198 ± 0.11.

Q: Which abundance fitness does the source give for KHLIERYYHQLTEGCGNEACTNEFCASCPTFLRMDNNAAAIRALELYKINAKLCDPH [K42R] here?
A: Its abundance fitness is -0.023 ± 0.052.

Q: Which abundance fitness does the source give for KHLIERYYHQLTEGCGNEACTNEFCASCPTFLRMDNNAAAIEALELYKINAKLCDPH [K42E] here?
A: The abundance fitness was -0.109 ± 0.073.

Q: For KHLIERYYHQLTEGCGNEACTNEFCASCPTFLRMDNNAAAIAALELYKINAKLCDPH [K42A], which abundance fitness is on record?
A: The abundance fitness was -0.184 ± 0.068.

Q: With KHLIERYYHQLTEGCGNEACTNEFCASCPTFLRMDNNAAAIFALELYKINAKLCDPH [K42F] as the variant, how does the abundance fitness read?
A: The abundance fitness was -0.408 ± 0.21.

Q: For KHLIERYYHQLTEGCGNEACTNEFCASCPTFLRMDNNAAAIIALELYKINAKLCDPH [K42I], which abundance fitness is on record?
A: The abundance fitness was -0.498 ± 0.13.

Q: With KHLIERYYHQLTEGCGNEACTNEFCASCPTFLRMDNNAAAIKGLELYKINAKLCDPH [A43G] as the variant, how does the abundance fitness read?
A: The abundance fitness was -0.156 ± 0.054.

Q: With KHLIERYYHQLTEGCGNEACTNEFCASCPTFLRMDNNAAAIKDLELYKINAKLCDPH [A43D] as the variant, how does the abundance fitness read?
A: Its abundance fitness is -0.856 ± 0.12.

Q: For KHLIERYYHQLTEGCGNEACTNEFCASCPTFLRMDNNAAAIKFLELYKINAKLCDPH [A43F], which abundance fitness is on record?
A: The abundance fitness was -1.06 ± 0.21.

Q: For KHLIERYYHQLTEGCGNEACTNEFCASCPTFLRMDNNAAAIKHLELYKINAKLCDPH [A43H], which abundance fitness is on record?
A: The abundance fitness was -0.987 ± 0.16.

Q: For KHLIERYYHQLTEGCGNEACTNEFCASCPTFLRMDNNAAAIKELELYKINAKLCDPH [A43E], which abundance fitness is on record?
A: Its abundance fitness is -0.894 ± 0.1.

Q: Which abundance fitness does the source give for KHLIERYYHQLTEGCGNEACTNEFCASCPTFLRMDNNAAAIKCLELYKINAKLCDPH [A43C] here?
A: The abundance fitness was -0.098 ± 0.075.

Q: For KHLIERYYHQLTEGCGNEACTNEFCASCPTFLRMDNNAAAIKILELYKINAKLCDPH [A43I], which abundance fitness is on record?
A: The abundance fitness was -0.92 ± 0.19.

Q: Which abundance fitness does the source give for KHLIERYYHQLTEGCGNEACTNEFCASCPTFLRMDNNAAACKALELYKINAKLCDPH [I41C] here?
A: Its abundance fitness is -0.028 ± 0.062.

Q: Which abundance fitness does the source give for KHLIERYYHQLTEGCGNEACTNEFCASCPTFLRMDNNAAAHKALELYKINAKLCDPH [I41H] here?
A: Its abundance fitness is 0.064 ± 0.084.

Q: Which abundance fitness does the source give for KHLIERYYHQLTEGCGNEACTNEFCASCPTFLRMDNNAAAMKALELYKINAKLCDPH [I41M] here?
A: The abundance fitness was -0.053 ± 0.076.

Q: Which abundance fitness does the source give for KHLIERYYHQLTEGCGNEACTNEFCASCPTFLRMDNNAAATKALELYKINAKLCDPH [I41T] here?
A: Its abundance fitness is -0.013 ± 0.063.

Q: Which abundance fitness does the source give for KHLIERYYHQLTEGCGNEACTNEFCASCPTFLRMDNNAAAWKALELYKINAKLCDPH [I41W] here?
A: The abundance fitness was -0.239 ± 0.063.

Q: For KHLIERYYHQLTEGCGNEACTNEFCASCPTFLRMDNNAAAPKALELYKINAKLCDPH [I41P], which abundance fitness is on record?
A: Its abundance fitness is -0.069 ± 0.068.

Q: With KHLIERYYHQLTEGCGNEACTNEFCASCPTFLRMDNNAAASKALELYKINAKLCDPH [I41S] as the variant, how does the abundance fitness read?
A: Its abundance fitness is 0.035 ± 0.052.

Q: With KHLIERYYHQLTEGCGNEACTNEFCASCPTFLRMDNNAAAYKALELYKINAKLCDPH [I41Y] as the variant, how does the abundance fitness read?
A: Its abundance fitness is -0.123 ± 0.087.

Q: For KHLIERYYHQLTEGCGNEACTNEFCASCPTFLRMDNNAAADKALELYKINAKLCDPH [I41D], which abundance fitness is on record?
A: The abundance fitness was 0.024 ± 0.087.

Q: For KHLIERYYHQLTEGCGNEACTNEFCASCPTFLRMDNNAAAEKALELYKINAKLCDPH [I41E], which abundance fitness is on record?
A: The abundance fitness was 0.029 ± 0.067.

Q: With KHLIERYYHQLTEGCGNEACTNEFCASCPTFLRMDNNAAALKALELYKINAKLCDPH [I41L] as the variant, how does the abundance fitness read?
A: Its abundance fitness is -0.072 ± 0.055.

Q: With KHLIERYYHQLTEGCGNEACTNEFCASCPTFLRMDNNAAAQKALELYKINAKLCDPH [I41Q] as the variant, how does the abundance fitness read?
A: The abundance fitness was 0.075 ± 0.076.

Q: For KHLIERYYHQLTEGCGNEACTNEFCASCPTFLRMDNNAAARKALELYKINAKLCDPH [I41R], which abundance fitness is on record?
A: The abundance fitness was 0 ± 0.047.

Q: Which abundance fitness does the source give for KHLIERYYHQLTEGCGNEACTNEFCASCPTFLRMDNNAAAGKALELYKINAKLCDPH [I41G] here?
A: Its abundance fitness is 0.001 ± 0.052.

Q: With KHLIERYYHQLTEGCGNEACTNEFCASCPTFLRMDNNAAAVKALELYKINAKLCDPH [I41V] as the variant, how does the abundance fitness read?
A: Its abundance fitness is 0.01 ± 0.057.

Q: Which abundance fitness does the source give for KHLIERYYHQLTEGCGNEACTNEFCASCPTFLRMDNNAAAKKALELYKINAKLCDPH [I41K] here?
A: Its abundance fitness is 0.08 ± 0.089.

Q: With KHLIERYYHQLTEGCGNEACTNEFCASCPTFLRMDNNAAAAKALELYKINAKLCDPH [I41A] as the variant, how does the abundance fitness read?
A: The abundance fitness was 0.012 ± 0.059.
